Assay: yeast display, Sf9 membrane polyspecificity reagent, FACS + sequencing; frameworks hold sequencing errors
Outline: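 Nanobodies came from a synthetic yeast display library in Saccharomyces cerevisiae BJ5465, induced with galactose for 36–48 hours and stained for 1 hour at 4 °C with 10% biotinylated, detergent-solubilized Sf9 membrane reagent. Cells were enriched on streptavidin microbeads and then FACS-sorted, with low and high (top ~1%) gates set on anti-HA fluorescence for expression and streptavidin fluorescence for reagent binding. Each polyreactivity label reflects the gate a clone came from. Genes were amplified by colony PCR, sequenced by MiSeq 2 × 250 and filtered by CDR length.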

Sequence | polyreactivity (PSR sort gate)
QVQLVESGGGLVQEGGSLRLSCAASGSIFKEYAMGWSRQAPGKERELVAAISTSGDITYYSDSVKGRFTISRDNAKNTVYLQMNSLKPEDTGVYYCAANYSLLRQYNRLDYWGQGTQLTVSS | low polyreactivity
QVQLVESAGGLVQAGGSLRLSCAASGYTFPFYTMGWYRQAPGKERELVAAITDTGGGTYYADSVKGRFTISRDNAKNTVYLQMNSLNPEDTAVYYCAKPTSYRGYYSWGQGTQVTVSS | high polyreactivity
QVQLVESGGGLVQAGGSLRLSCAASGSTFPRNAMGWYRLAPGKERELVAAITSGDSTYYADSVNGRFTISRDNAKNTVYLQKNSQKPEDTAVYYCGQGTQVTVSS | low polyreactivity
QVQLVESGGGLVQAGGSLRLSCAASGFTFSWYAMGWSRQAPGKERELVAGISYSGTRTFYADSVKGRFTISRDNAKNTVYLQMNSLTPEDTAVYYCAAVVPGRTVLQPEYDYWGQGTQVTVSS | low polyreactivity
QVQLVESGGGLVQAGGSLRLSCATSGSIFYRYAMGWYRQAPGKEREFVAAIRWRGGSTYYADSVKGRFTISRDNAKNTVYLQMNSLKPEDTAVYYCAAPTVQSYNYWGQGTQVTVSS | high polyreactivity
QVQLVESGGGLVQAGGSLRLSCAASGSIFGVYTMGWYRQAPGKERELVAAITSAGSTYADSVKGRFTISRDNAKNTVYLQMNSLKPEDTEVFYCNAQSVLLSLRVELREPHEYWGQGTQVTVSS | low polyreactivity
QVQLVESGGGLVQAGGSLRLTCAASGSIFYPYSMGRYRPAPGKERELVAAISSSGGSTYYADSVKGRFTISRDNAKNTVYLQMNSLKPEDTADYNCAARGKKHAYDYWGQGTQVTVSS | low polyreactivity
QVQLVESGGRLVQAGGSLRLSCAASGSILDGNTMGWYRQAPGKEMELVAAITWDGTSTYYADSVKGRFTISRDNAKNTVYLQMNSLKPEDTAVYYCAATKGYSDQSTGYYAYIHYDYWGQGTQVTVSS | low polyreactivity
QVQLVESGGGLVQEGGSLRLICAASGFTFGAHGMGWYRQAPGKERELVAANNSRGSRTYYADSGKGRFTISRDNPKNTVFFQMNSLQPDDTAVYYCAADYYAFKFGRFDYWGHGTQVTVSS | high polyreactivity
QVQLVESGGGLVQAGGSLRLSCAASGSIFFYNTMGWYRQAPGKERELVAAISASGGRTYYADSVKGRFTISRDYSKNTVYLQMNSLKPEDTAVYYCAVRVPYRGYTRYDYWGHGTQVTVSS | high polyreactivity
QVQLVESGGGLVQAGGSLRLSFAASGRTFTYNAMGVYRQAPGKERELVAAMTYRGGSTYYADSVKGRFTISRDNAKNTVYLQMNSLKPEDTAVYYCAARVSYYRYNTPHYYYWGQGTQVTVSS | high polyreactivity
QVQLEESGGGLVQAGGSLRLSCAASGSTFDVYAMGWYRQAPGKERELVAAIRSSGGSTFYADSVKGRFTISRDNAKNIVYLQMNSLKPEDTAVYYCAARSFVVSGYNKYYEYGYWGQGTQVTVSS | low polyreactivity
QVQLVESGGGLVQAGGSLRLSCAASGRTFPSYVMGWYRQAPGKERELVAAINNGVSTNYADSVKGRYTISRDNAKNTVYLQMNSLNPEDTADYYCAAEVVAQMNYCGQGTQVTVSS | low polyreactivity
QVQLVESGGGLVQAGGSLRLSCAASGSIFHWNAMGWYRQAPGKERELVAGITTSGGTTYYADSVKGRFTISRDNAKNTVYLQMNSLKPEDTAVYYCAARIIRWRPRWPSYGKYDYWGQGTQVTVSS | low polyreactivity
QVQLEESGGGLVQAGGSLRLSCAASGRTFRYYAMGWSRQAPGKERELVAAISWSGSSTYYADSVKGRFTISRDNAKNTVYLQMNSLKAEDTAVYYCNAKGVRGKYFDYSRVSAYDYWGQGTQVTVSS | low polyreactivity
QVQLVESGVGLVQAGGSLRLSCAASGNIITTYAMGWYRQAPGKERELVAAISRTGGRTSYADSVKGRFTISRDNAKNTVYLQMNSLKPEDTAVYYCAAVQTVRQSAPRARILSDYWGQGTQVTVSS | high polyreactivity

Sequence | polyreactivity (PSR sort gate)
QVQLVESGGGLVQAGGSLRLSCAASGFTFYTYAMGWYRQAPGKERELVAGISTRGGRTYYADSVKGRFTISRDNAKNTVYLQMNSLKPEDTAVYYCNAVDKTGKYDYWGQGTQVTVSS | high polyreactivity
QVQLVESGGGLVQAGGSLRLSCAASGRIFGTYAMGWYRQAPGKERELVATISYSSGRTYYADSVKGRFTISRDNAKNTVYFQMNSLKPEDTAVYYCARRRRSGSRQYYYWGQGTQVTVSS | high polyreactivity
QVQLVESGGGLVQAGGSLRLSCAASGRIFSKYAMGWYRQAPGKERELVAAIRSGGRTYYADSVKGRFTISRDNAKNTVYLQMNSLKPEDTAVYYCAKGTFRYPFSFTFLGYDYWGQGTQVTVSS | high polyreactivity
QVQLVESGGGLVQAGGSLRLSCAASGSTSSSKAMGWYREAPGKERELVATITNGSGTSYADSVKGRFTISRDNAKNTVYLQMNSLKPEDTAVYYCYVSSLNSYTSGTTYWGLDYWGQGTQVTVSS | low polyreactivity
QVQLVESGGGLVQAGGSLRLSCAASGSTFTNNGMGWYRQAPGKERELVATISWDGDSTYYADSVKGRFTISRDNAKNSVYLQMNSLKPEDTAVYDCAADYRLHYSYPYEVVQYEYWGQGTQVTVSS | low polyreactivity
QVQLVESGGGIVQAGGSLRLSCAASGRLFYYYAMGWDRQAPGTERELVAVISRGVITYYADSVKGRFTISRDTAKNTVYLQMNSLKPEDTAVYYCAVSYPHYIYSYGYWGQGTQVTVSS | high polyreactivity
QVQLVESGGGLVQAGGSLRLSCAASGSIFVHYAMGWYRQAPGKERELVASISTSGGRTRYADSVKGRFTISRDNAKNTVYLQMNSLKPEDTAVYYCAALRWGRRYDYWGQGTQVTVSS | high polyreactivity
QVQLVESGGGLVQAGGSLRLICAASGFIFPHNTMGWYRQAPGKERELVAAISSGGSTNYADSVKGRFTLSRDNAKNTVYLQMNSLKPEDTAVYYCATVSVRWPSNDHVRYDYWGQGTQVTVSS | low polyreactivity
QVQLVESGGGLVQAGGSLRLSSAASGSTFLYYAMGWYRQAPGKERELVATITDGGSTNYADSVKGRFTISRDNAKNTVYLQMNSLKPEDTAVYYCATDSYHYSYGYSSLPEYDYWGQGTQVTVSS | low polyreactivity
QVQLVESGGGLVQAGGSLRLSCAASGRTFYLYTMGWYRQAPGKERELVATISDGGGGTYYADSVKGRFTISRDNAKNTVYLQMNSLKPEDPAVYYCAADPIDVRDVPIPHVDFDYWGQGTQVTVSS | low polyreactivity
QVQLVESGGGLVQAGGSLRLSCAASGLTFGYYAMGWYRQAPGKERELVAVISGGGGTHYADSVKGRFTISRDNAKNTVYLQMNSLKPEDTAVYYCAARYRAQQIARYYYWGQGTQVTVSS | high polyreactivity
QVQLVESGGGLVQAGGSLRLSCAASGFILKPNAMGWYRQAPGKERELVAAISWSSGSTYYADSVKGRFTISRDNAKNTVYLQMNRLKPEDTAVYYCAADYFVYPDDWYDYWGQGTQVTVSS | low polyreactivity
QVQLVESGGGLVQAGGSLRLSCAASGRIFHGNAMGWYRQAPGKERELVAAITSGGRTFYADSVKGRFTISRDNAKNTVYLQMNSLKPEDTAVYYCNAPSIAGYAEYNSHDYWGQGTQVTVSS | high polyreactivity
QVQLVESGGGLVQAGGSLRLSCAASGRTFYNTMGWYRQPPGKERELVAAISRGGITNYADSVKGRFTISRDNAKNTVYLQMNSLKPEDTAVYYCNAEPKLYYYYYKFDYWGQGTQVTVAS | high polyreactivity
HVKLVESGGGLVQAGGSLRLSCAASGSIFEPYVMGWYRQAPGKERELVAAIRQTRGSTYYADSVKGRFTISRDNAKNTVYLQMNSLKPEDTAVYYCNAEQNPSGLYDYRGVEGEMGYWGQGTQVTVSS | low polyreactivity

— the nanobody polyreactivity screen of Harvey et al. (2022)
